In paper PMC12416549 (2024):
Residue numbers refer to the chain shown, from its start. Names and notes keep the numbering of the source.

T1: TNFR1 (Homo sapiens, UniProt P19438)
T1 chain: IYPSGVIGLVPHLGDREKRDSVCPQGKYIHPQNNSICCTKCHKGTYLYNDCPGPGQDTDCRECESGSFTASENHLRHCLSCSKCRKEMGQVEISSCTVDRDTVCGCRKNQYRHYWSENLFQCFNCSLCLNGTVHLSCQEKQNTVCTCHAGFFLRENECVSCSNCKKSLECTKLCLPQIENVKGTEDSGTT

B1: A30K (designed binder)
chain: SMEEEVEKAAKEYEKKKKEAIEKHLEKLKKKDKEAAERFLKELEEAAKEYAKDEAKTMSEEEAKRRAKKYKEKVLLSELSEEEQKEIKEAEEKLVRTILKYVEEAAK
B2: E83V (designed binder)
chain: B1 chain with K30A, E83V
B3: E19M (designed binder)
chain: B1 chain with E19M, K30A
B4: E54R (designed binder)
chain: B1 chain with K30A, E54R
B5: E26I (designed binder)
chain: B1 chain with E26I, K30A
B6: E54L (designed binder)
chain: B1 chain with K30A, E54L
B7: K88A (designed binder)
chain: B1 chain with K30A, K88A
B8: E26G (designed binder)
chain: B1 chain with E26G, K30A
B9: Y101V (designed binder)
chain: B1 chain with K30A, Y101V
B10: A30Q (designed binder)
chain: B1 chain with K30Q
B11: A20S (designed binder)
chain: B1 chain with A20S, K30A
B12: A105I (designed binder)
chain: B1 chain with K30A, A105I
B13: I87P (designed binder)
chain: B1 chain with K30A, I87P
B14: A63D (designed binder)
chain: B1 chain with K30A, A63D
B15: E37F (designed binder)
chain: B1 chain with K30A, E37F
B16: A51N (designed binder)
chain: B1 chain with K30A, A51N
B17: E49S (designed binder)
chain: B1 chain with K30A, E49S
B18: I87T (designed binder)
chain: B1 chain with K30A, I87T
B19: I21D (designed binder)
chain: B1 chain with I21D, K30A
B20: E12N (designed binder)
chain: B1 chain with E12N, K30A
B21: E5F (designed binder)
chain: B1 chain with E5F, K30A
B22: A90F (designed binder)
chain: B1 chain with K30A, A90F
B23: K8Y (designed binder)
chain: B1 chain with K8Y, K30A
B24: K69H (designed binder)
chain: B1 chain with K30A, K69H
B25: E78P (designed binder)
chain: B1 chain with K30A, E78P
B26: K69M (designed binder)
chain: B1 chain with K30A, K69M
B27: E34K (designed binder)
chain: B1 chain with K30A, E34K
B28: A90D (designed binder)
chain: B1 chain with K30A, A90D
B29: V102D (designed binder)
chain: B1 chain with K30A, V102D
B30: Y50T (designed binder)
chain: B1 chain with K30A, Y50T
B31: K27R (designed binder)
chain: B1 chain with K27R, K30A
B32: K71L (designed binder)
chain: B1 chain with K30A, K71L
B33: E89K (designed binder)
chain: B1 chain with K30A, E89K
B34: L28S (designed binder)
chain: B1 chain with L28S, K30A
B35: L25Y (designed binder)
chain: B1 chain with L25Y, K30A
B36: L99K (designed binder)
chain: B1 chain with K30A, L99K
B37: E42V (designed binder)
chain: B1 chain with K30A, E42V
B38: E14N (designed binder)
chain: B1 chain with E14N, K30A
B39: E54D (designed binder)
chain: B1 chain with K30A, E54D
B40: K27Q (designed binder)
chain: B1 chain with K27Q, K30A
B41: K8T (designed binder)
chain: B1 chain with K8T, K30A
B42: A90W (designed binder)
chain: B1 chain with K30A, A90W
B43: E45T (designed binder)
chain: B1 chain with K30A, E45T

Target: T1, TNFR1
Experiment: yeast display SC50

Binder	apparent Kd (screen) [nM]
B1	0.956
B2	0.446
B3	0.446
B4	18.3
B5	1.16
B6	4.39
B7	0.405
B8	0.593
B9	0.446
B10	0.593
B11	0.446
B12	1.69
B13	22.2
B14	10.4
B15	0.49
B16	12.5
B17	1.27
B18	12.5
B19	10.4
B20	1.16
B21	1.05
B22	0.49

Binder	apparent Kd (screen) [nM]
B23	0.956
B24	0.49
B25	2.73
B26	0.49
B27	0.539
B28	0.446
B29	0.539
B30	1.16
B31	0.869
B32	0.653
B33	2.73
B34	0.49
B35	0.446
B36	7.78
B37	1.16
B38	5.31
B39	20.2
B40	0.593
B41	1.16
B42	0.49
B43	2.73
